According to paper PMC6936856:

What was measured:
[1] = biological target: JR-FL Env gp160 on pseudovirus (HIV-1 (JR-FL)) (UniProt Q75760)
[2] = biological target: JR-FL Env gp160 on pseudovirus (HIV-1 (JR-FL)) (UniProt Q75760); remark: listed apart in the source

Row | Binder | IC50 of neutralisation of kifunensine-treated (Man9GlcNAc2-enriched) JR-FL pseudovirus, TZM-bl cells [1] | IC50 of neutralisation of kifunensine-treated JR-FL, TZM-bl cells [2]
1 | DH501 IgG1 (antibody, V domains shown) VH: QVTLKEFGPALVKPTQPLTLTCSFSGFSLRSSDTAVVWIRQPPGKALEWLAAIYWDDVEHINPSLKSRLSISKDSPNSLVVLTMANMDPVDTATYYCGRVRFVSGGYYTDRIDSWGPGLLVTVSS VL: QSVLTQPPSVSGAPGQRVTISCAGTKSNIGDCSVSWYQQLPGATPRLLIYQNNNRPSGVSDRFSGSKSGTSASLAITGLQTEDEADYFCLSYDTSFSGWRFGGGTRLTVL | 0.09 mg/L | 
2 | DH501 with HFWR4 somatic mutations reverted to the UCA sequence (antibody, V domains shown) VH: QVTLKEFGPALVKPTQPLTLTCSFSGFSLRSSDTAVVWIRQPPGKALEWLAAIYWDDVEHINPSLKSRLSISKDSPNSLVVLTMANMDPVDTATYYCGRVRFVSGGYYTDRIDSWGQGVLVTVSS VL: QSVLTQPPSVSGAPGQRVTISCAGTKSNIGDCSVSWYQQLPGATPRLLIYQNNNRPSGVSDRFSGSKSGTSASLAITGLQTEDEADYFCLSYDTSFSGWRFGGGTRLTVL |  | 4.34 mg/L
3 | DH501 H/UCA L chimeric antibody (antibody, V domains shown) VH: QVTLKEFGPALVKPTQPLTLTCSFSGFSLRSSDTAVVWIRQPPGKALEWLAAIYWDDVEHINPSLKSRLSISKDSPNSLVVLTMANMDPVDTATYYCGRVRFVSGGYYTDRIDSWGPGLLVTVSS VL: QSVLTQPPSVSGAPGQRVTISCTGSSSNIGGYYVSWYQQLPGTTPKLLIYQDNKRPSGVSDRFSGSKSGTSASLTITGLQTEDEADYYCLSYDTSFSGWRFGGGTRLTVL | 0.06 mg/L | 
